The values below come from patent US11833164B2, “Methods of treating Fabry disease in patients having a mutation in the GLA gene” (Amicus Therapeutics, Inc., priority 2019, dated 2023).

This experiment deals with mutant form of α-Gal A expressed in HEK-293 cells. The experiment in a line: HEK assay (GLP HEK / Migalastat Amenability Assay): α-Gal A activity in lysates of transiently transfected HEK-293 cells incubated with or without 10 μM migalastat. In kind it is cell-based, human. As to conditions: for Absolute increase (% WT): 10 μM migalastat versus baseline; for Relative increase: 10 μM migalastat α-Gal A activity relative to baseline; for 10 μM migalastat α-Gal A activity (% WT): 5 days; for 10 μM migalastat α-Gal A activity (% WT) / Baseline α-Gal A activity (% WT): percentage of baseline wild-type α-Gal A activity; for 10 μM migalastat α-Gal A activity (% WT) / Baseline α-Gal A activity (% WT) / Baseline α-Gal A activity / 10 μM migalastat α-Gal A activity: mean ± SEM; for Baseline α-Gal A activity (% WT): absence of migalastat; for Baseline α-Gal A activity / 10 μM migalastat α-Gal A activity: lysates of HEK-293 cells transfected with the mutant form; for Baseline α-Gal A activity: incubated 5 days in the absence of migalastat; for 10 μM migalastat α-Gal A activity: incubated 5 days with 10 μM migalastat. In a few lines:
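Activity reported as 4-MU released (nmol/mg/hr), mean±SEM, from lysates of transiently transfected HEK-293 cells expressing mutant α-Gal A, cultured with or without 10 μM migalastat.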

B1: E178A (protein)
chain: MQLRNPELHLGCALALRFLALVSWDIPGARALDNGLARTPTMGWLHWERFMCNLDCQEEPDSCISEKLFMEMAELMVSEGWKDAGYEYLCIDDCWMAPQRDSEGRLQADPQRFPHGIRQLANYVHSKGLKLGIYADVGNKTCAGFPGSFGYYDIDAQTFADWGVDLLKFDGCYCDSLANLADGYKHMSLALNRTGRSIVYSCEWPLYMWPFQKPNYTEIRQYCNHWRNFADIDDSWKSIKSILDWTSFNQERIVDVAGPGGWNDPDMLVIGNFGLSWNQQVTQMALWAIMAAPLFMSNDLRHISPQAKALLQDKDVIAINQDPLGKQGYQLRQGDNFEVWERPLSGLAWAVAMINRQEIGGPRSYTIAVASLGKGVACNPACFITQLLPVKRKLGFYEWTSRLRSHINPTGTVLLQLENTMQMSLKDLL
With B1, the “Absolute increase (% WT)” value is on record as 14.5 % WT, the Relative increase is reported as 1.2, the “10 μM migalastat α-Gal A activity (% WT)” value came to 84.8 ± 6.8 % WT and the “Baseline α-Gal A activity (% WT)” value came out at 70.3 ± 4.9 % WT. Besides, the “Baseline α-Gal A activity” value was 23910 ± 1511 nmol/mg/h and the “10 μM migalastat α-Gal A activity” value came to 29125 ± 2326 nmol/mg/h.

B2: E178Q (protein)
chain: MQLRNPELHLGCALALRFLALVSWDIPGARALDNGLARTPTMGWLHWERFMCNLDCQEEPDSCISEKLFMEMAELMVSEGWKDAGYEYLCIDDCWMAPQRDSEGRLQADPQRFPHGIRQLANYVHSKGLKLGIYADVGNKTCAGFPGSFGYYDIDAQTFADWGVDLLKFDGCYCDSLQNLADGYKHMSLALNRTGRSIVYSCEWPLYMWPFQKPNYTEIRQYCNHWRNFADIDDSWKSIKSILDWTSFNQERIVDVAGPGGWNDPDMLVIGNFGLSWNQQVTQMALWAIMAAPLFMSNDLRHISPQAKALLQDKDVIAINQDPLGKQGYQLRQGDNFEVWERPLSGLAWAVAMINRQEIGGPRSYTIAVASLGKGVACNPACFITQLLPVKRKLGFYEWTSRLRSHINPTGTVLLQLENTMQMSLKDLL
In the case of B2, the “Absolute increase (% WT)” value came to 18.3 % WT, the Relative increase is reported as 1.3, the “10 μM migalastat α-Gal A activity (% WT)” value came out at 86.4 ± 5 % WT and the “Baseline α-Gal A activity (% WT)” value was 68.1 ± 4.5 % WT. The “Baseline α-Gal A activity” value came to 23272 ± 1501 nmol/mg/h and the “10 μM migalastat α-Gal A activity” value is 29671 ± 1733 nmol/mg/h.

B3: L180M (protein)
chain: MQLRNPELHLGCALALRFLALVSWDIPGARALDNGLARTPTMGWLHWERFMCNLDCQEEPDSCISEKLFMEMAELMVSEGWKDAGYEYLCIDDCWMAPQRDSEGRLQADPQRFPHGIRQLANYVHSKGLKLGIYADVGNKTCAGFPGSFGYYDIDAQTFADWGVDLLKFDGCYCDSLENMADGYKHMSLALNRTGRSIVYSCEWPLYMWPFQKPNYTEIRQYCNHWRNFADIDDSWKSIKSILDWTSFNQERIVDVAGPGGWNDPDMLVIGNFGLSWNQQVTQMALWAIMAAPLFMSNDLRHISPQAKALLQDKDVIAINQDPLGKQGYQLRQGDNFEVWERPLSGLAWAVAMINRQEIGGPRSYTIAVASLGKGVACNPACFITQLLPVKRKLGFYEWTSRLRSHINPTGTVLLQLENTMQMSLKDLL
As to B3, the “Absolute increase (% WT)” value is reported as 29.5 % WT, the Relative increase is 1.3, the “10 μM migalastat α-Gal A activity (% WT)” value amounted to 122.9 ± 5.5 % WT and the “Baseline α-Gal A activity (% WT)” value is listed as 93.4 ± 6.6 % WT. The “Baseline α-Gal A activity” value is 35987 ± 2266 nmol/mg/h and the “10 μM migalastat α-Gal A activity” value is 47587 ± 2132 nmol/mg/h.

B4: E178G (protein)
chain: MQLRNPELHLGCALALRFLALVSWDIPGARALDNGLARTPTMGWLHWERFMCNLDCQEEPDSCISEKLFMEMAELMVSEGWKDAGYEYLCIDDCWMAPQRDSEGRLQADPQRFPHGIRQLANYVHSKGLKLGIYADVGNKTCAGFPGSFGYYDIDAQTFADWGVDLLKFDGCYCDSLGNLADGYKHMSLALNRTGRSIVYSCEWPLYMWPFQKPNYTEIRQYCNHWRNFADIDDSWKSIKSILDWTSFNQERIVDVAGPGGWNDPDMLVIGNFGLSWNQQVTQMALWAIMAAPLFMSNDLRHISPQAKALLQDKDVIAINQDPLGKQGYQLRQGDNFEVWERPLSGLAWAVAMINRQEIGGPRSYTIAVASLGKGVACNPACFITQLLPVKRKLGFYEWTSRLRSHINPTGTVLLQLENTMQMSLKDLL
In the case of B4, the “Absolute increase (% WT)” value is listed as 18.6 % WT, the Relative increase was found to be 1.5, the “10 μM migalastat α-Gal A activity (% WT)” value was found to be 61.7 ± 6.4 % WT and the “Baseline α-Gal A activity (% WT)” value was 43.1 ± 4.7 % WT. In addition, the “Baseline α-Gal A activity” value was determined as 17470 ± 2323 nmol/mg/h and the “10 μM migalastat α-Gal A activity” value amounted to 26566 ± 4263 nmol/mg/h.

B5: A181P (protein)
chain: MQLRNPELHLGCALALRFLALVSWDIPGARALDNGLARTPTMGWLHWERFMCNLDCQEEPDSCISEKLFMEMAELMVSEGWKDAGYEYLCIDDCWMAPQRDSEGRLQADPQRFPHGIRQLANYVHSKGLKLGIYADVGNKTCAGFPGSFGYYDIDAQTFADWGVDLLKFDGCYCDSLENLPDGYKHMSLALNRTGRSIVYSCEWPLYMWPFQKPNYTEIRQYCNHWRNFADIDDSWKSIKSILDWTSFNQERIVDVAGPGGWNDPDMLVIGNFGLSWNQQVTQMALWAIMAAPLFMSNDLRHISPQAKALLQDKDVIAINQDPLGKQGYQLRQGDNFEVWERPLSGLAWAVAMINRQEIGGPRSYTIAVASLGKGVACNPACFITQLLPVKRKLGFYEWTSRLRSHINPTGTVLLQLENTMQMSLKDLL
On to B5, for which the “Absolute increase (% WT)” value stood at 29.8 % WT, the Relative increase is recorded as 1.9, the “10 μM migalastat α-Gal A activity (% WT)” value was 61.5 ± 3.3 % WT and the “Baseline α-Gal A activity (% WT)” value worked out at 31.7 ± 2 % WT. The “Baseline α-Gal A activity” value was found to be 10948 ± 725 nmol/mg/h and the “10 μM migalastat α-Gal A activity” value was 21274 ± 1279 nmol/mg/h.

B6: A181T (protein)
chain: MQLRNPELHLGCALALRFLALVSWDIPGARALDNGLARTPTMGWLHWERFMCNLDCQEEPDSCISEKLFMEMAELMVSEGWKDAGYEYLCIDDCWMAPQRDSEGRLQADPQRFPHGIRQLANYVHSKGLKLGIYADVGNKTCAGFPGSFGYYDIDAQTFADWGVDLLKFDGCYCDSLENLTDGYKHMSLALNRTGRSIVYSCEWPLYMWPFQKPNYTEIRQYCNHWRNFADIDDSWKSIKSILDWTSFNQERIVDVAGPGGWNDPDMLVIGNFGLSWNQQVTQMALWAIMAAPLFMSNDLRHISPQAKALLQDKDVIAINQDPLGKQGYQLRQGDNFEVWERPLSGLAWAVAMINRQEIGGPRSYTIAVASLGKGVACNPACFITQLLPVKRKLGFYEWTSRLRSHINPTGTVLLQLENTMQMSLKDLL
In the case of B6, the “Absolute increase (% WT)” value was found to be 19.2 % WT, the Relative increase was 1.4, the “10 μM migalastat α-Gal A activity (% WT)” value is listed as 71.3 ± 4.6 % WT and the “Baseline α-Gal A activity (% WT)” value turned out to be 52.1 ± 2.7 % WT. Also, the “Baseline α-Gal A activity” value worked out at 17946 ± 1002 nmol/mg/h and the “10 μM migalastat α-Gal A activity” value is 24490 ± 1576 nmol/mg/h.

B7: E178K (protein)
chain: MQLRNPELHLGCALALRFLALVSWDIPGARALDNGLARTPTMGWLHWERFMCNLDCQEEPDSCISEKLFMEMAELMVSEGWKDAGYEYLCIDDCWMAPQRDSEGRLQADPQRFPHGIRQLANYVHSKGLKLGIYADVGNKTCAGFPGSFGYYDIDAQTFADWGVDLLKFDGCYCDSLKNLADGYKHMSLALNRTGRSIVYSCEWPLYMWPFQKPNYTEIRQYCNHWRNFADIDDSWKSIKSILDWTSFNQERIVDVAGPGGWNDPDMLVIGNFGLSWNQQVTQMALWAIMAAPLFMSNDLRHISPQAKALLQDKDVIAINQDPLGKQGYQLRQGDNFEVWERPLSGLAWAVAMINRQEIGGPRSYTIAVASLGKGVACNPACFITQLLPVKRKLGFYEWTSRLRSHINPTGTVLLQLENTMQMSLKDLL
As to B7, the “Absolute increase (% WT)” value is 16.4 % WT, the Relative increase is listed as 1.2, the “10 μM migalastat α-Gal A activity (% WT)” value was 90.9 ± 4.8 % WT and the “Baseline α-Gal A activity (% WT)” value is 74.5 ± 3.4 % WT. The “Baseline α-Gal A activity” value was found to be 25584 ± 1225 nmol/mg/h and the “10 μM migalastat α-Gal A activity” value stood at 31222 ± 1660 nmol/mg/h.

B8: L180S (protein)
chain: MQLRNPELHLGCALALRFLALVSWDIPGARALDNGLARTPTMGWLHWERFMCNLDCQEEPDSCISEKLFMEMAELMVSEGWKDAGYEYLCIDDCWMAPQRDSEGRLQADPQRFPHGIRQLANYVHSKGLKLGIYADVGNKTCAGFPGSFGYYDIDAQTFADWGVDLLKFDGCYCDSLENSADGYKHMSLALNRTGRSIVYSCEWPLYMWPFQKPNYTEIRQYCNHWRNFADIDDSWKSIKSILDWTSFNQERIVDVAGPGGWNDPDMLVIGNFGLSWNQQVTQMALWAIMAAPLFMSNDLRHISPQAKALLQDKDVIAINQDPLGKQGYQLRQGDNFEVWERPLSGLAWAVAMINRQEIGGPRSYTIAVASLGKGVACNPACFITQLLPVKRKLGFYEWTSRLRSHINPTGTVLLQLENTMQMSLKDLL
As for B8, the “Absolute increase (% WT)” value was determined as 35.5 % WT, the Relative increase was determined as 3.3, the “10 μM migalastat α-Gal A activity (% WT)” value is reported as 50.9 ± 2.3 % WT and the “Baseline α-Gal A activity (% WT)” value came out at 15.4 ± 1.5 % WT. In addition, the “Baseline α-Gal A activity” value was found to be 5625 ± 604 nmol/mg/h and the “10 μM migalastat α-Gal A activity” value amounted to 18335 ± 964 nmol/mg/h.
